Source: US6448376

Target: LexA-DP-1 (pLEX(HIS).DP-1: complete bacterial LexA protein fused to DP-1 residues 59 to 410) (bacterial; murine) (UniProt Q08639)
Test: cell-based or functional assay

Chain of UniProt Q08639 (Q08639 59-410): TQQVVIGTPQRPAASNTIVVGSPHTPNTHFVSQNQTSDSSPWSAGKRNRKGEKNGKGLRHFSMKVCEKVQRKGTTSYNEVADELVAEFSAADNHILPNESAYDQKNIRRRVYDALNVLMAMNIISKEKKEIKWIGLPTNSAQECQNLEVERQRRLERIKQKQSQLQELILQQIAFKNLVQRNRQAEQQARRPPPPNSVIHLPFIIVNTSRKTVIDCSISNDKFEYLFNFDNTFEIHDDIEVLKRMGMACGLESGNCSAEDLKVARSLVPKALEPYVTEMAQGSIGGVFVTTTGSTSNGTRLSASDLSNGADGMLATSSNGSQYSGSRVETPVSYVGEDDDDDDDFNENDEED

With “GAD-E2F-5 (pGAD.E2F-5: entire murine E2F-5 as a hybrid with the GAL4 activation domain 768-881) (from UniProt P04386 768-881)” the transcriptional activity of the E2F site reporter p4xWT CYC1 in yeast was greater than 6 fold.
